From publication PMC8165797
Substitutions are numbered along the chain they refer to. Names and notes keep the numbering of the source.

B1: Il-DyP4 (Irpex lacteus; W410F) (protein)
chain: SAGNDSLPFENIQGDILVGMKKDKEKFVFFHINNATAFKSVLKTYAPANITSVATIIGPVANQPLAFVNLAFSHAGFGALNVTDDLQDTAFSDGQFKDSPNLGDDTSTWEEAFKGTNVDGVFLIGSNDESITAQYRDDLNAKFGDAWTIVYDLDSAARPGNEKGHEHFGYLDGISNPTIPGFGTPHPGQAVVDPGIIFTGRSKDPVMNRPSWALDGSFLVFRKLKQLVPEFNKYVLDNALQNQAGNLTVEEGAELLGSRMFGRWKSGAPIDLSPDFDDPALGNDIERNNNFNYSHPGSDLATDQTRCPFTAHIRKTNPRDLEGQGLFGDTFHAIRAGTPYGPEVTDYEASSNTTTIDRGLAFVEYQSVIGNGFRFQQQAFANNPRFPFSKGPSIQLGLDPVIGQGSPRETFGLDPRNASESFTVPQVIISNGGEYFFSPSITAIVEKFAA
notes: monomer, model residues 6-450
B2: Il-DyP4 (Irpex lacteus; W410Y) (protein)
chain: B1 chain with F380Y
notes: monomer, model residues 6-450
B3: Il-DyP4 (Irpex lacteus) (protein)
chain: B1 chain with F380W
notes: monomer, model residues 6-450
B4: Il-DyP4 (Irpex lacteus; W294R) (protein)
chain: B1 chain with W264R, F380W
notes: monomer, model residues 6-450
B5: Il-DyP4 (Irpex lacteus; W294F) (protein)
chain: B1 chain with W264F, F380W
notes: monomer, model residues 6-450
B6: Il-DyP4 (Irpex lacteus; W139F) (protein)
chain: B1 chain with W109F, F380W
notes: monomer, model residues 6-450
B7: Il-DyP4 (Irpex lacteus; W294Y) (protein)
chain: B1 chain with W264Y, F380W
notes: monomer, model residues 6-450
B8: Il-DyP4 (Irpex lacteus; W294H) (protein)
chain: B1 chain with W264H, F380W
notes: monomer, model residues 6-450

substrate: CCn1c(=NN=c2sc3cc(S(=O)(=O)O)ccc3n2CC)sc2cc(S(=O)(=O)O)ccc21; test: purified protein; assay type: biochemical, Irpex lacteus; details: 0.1 mM H2O2, 10 mM sodium tartrate pH 3.5, 3.3 nM enzyme

Protein | Km | kcat | kcat/Km
B1 | 752.00 ± 207.21 µM | 316.16 ± 61.61 s ^-1 | (4.20 ± 2.90) × 10^5 M^-1 s^-1
B2 | 275.07 ± 77.79 µM | 88.38 ± 15.66 s ^-1 | (3.21 ± 2.01) × 10^5 M^-1 s^-1
B3 | 67.29 ± 13.05 µM | 790 ± 56.06 s ^-1 | (1.17 ± 0.43) × 10^7 M^-1 s^-1
B4 | 19.47 ± 4.41 µM | 52.78 ± 2.86 s ^-1 | (2.71 ± 0.65) × 10^6 M^-1 s^-1
B5 | 71.87 ± 20.86 µM | 384.85 ± 42.27 s ^-1 | (5.35 ± 2.02) × 10^6 M^-1 s^-1

substrate: COc1cccc(OC)c1O; test: purified protein; assay type: biochemical, Irpex lacteus; details: 0.1 mM H2O2, 10 mM sodium tartrate pH 3.5, 3.3 nM enzyme

Protein | Km | kcat | kcat/Km
B3 | 8.98 ± 1.02 µM | 58.99 ± 0.45 s ^-1 | (6.57 ± 0.44) × 10^6 M^-1 s^-1
B4 | 1082.00 ± 283.00 µM | 18.28 ± 2.30 s ^-1 | (1.69 ± 0.81) × 10^4 M^-1 s^-1
B6 | 172.71 ± 38.31 µM | 69.65 ± 3.46 s ^-1 | (4.03 ± 0.90) × 10^5 M^-1 s^-1
B7 | 953.00 ± 102.70 µM | 56.25 ± 2.81 s ^-1 | (5.90 ± 2.74) × 10^4 M^-1 s^-1
B5 | 229.05 ± 30.79 µM | 71.21 ± 2.60 s ^-1 | (3.11 ± 0.84) × 10^5 M^-1 s^-1
B8 | 42.64 ± 6.32 µM | 54.29 ± 1.08 s ^-1 | (1.27 ± 0.17) × 10^6 M^-1 s^-1

substrate: Nc1c(S(=O)(=O)O)cc(Nc2cccc(S(=O)(=O)CCOS(=O)(=O)O)c2)c2c1C(=O)c1ccccc1C2=O; test: purified protein; assay type: biochemical, Irpex lacteus; details: 0.1 mM H2O2, 10 mM sodium tartrate pH 3.5, 3.3 nM enzyme

Protein | Km | kcat | kcat/Km
B3 | 139.87 ± 42.85 µM | 187.90 ± 37.00 s ^-1 | (1.34 ± 0.86) × 10^6 M^-1 s^-1
B5 | 27.60 ± 7.70 µM | 46.11 ± 5.91 s ^-1 | (1.67 ± 0.76) × 10^6 M^-1 s^-1
